Tested on: E. coli
Assay: Chloramphenicol resistance conferred by the synthetase (amber suppression in the CAT gene)
Format: cell-based
Protocol: Following mutagenesis, the pool of synthetases was then passed through positive and negative rounds of selection. The positive selection is based on suppression of an amber stop codon at a permissive site (Asp112) in the chloramphenicol acetyltransferase (CAT) gene. When E. coli cells harboring the MjTyrRS mutant library, the mutated CAT gene and a coexpressed Mj amber suppressor tRNACUA were grown on minimal media in the presence of pPRO-Phe (1 mM) and chloramphenicol (80 μg/mL), the only surviving cells are those cells that contain a mutant synthetase that aminoacylates the tRNACUA with either an endogenous amino acid or pPRO-Phe. The synthetase library genes were then transformed into cells containing a mutated gene encoding the toxic protein barnase, which has three amber mutations at permissive sites (Gln2, Asp44, Gly65). The vector carrying the barnase reporter also contained the suppressor tRNA. Growth of these cells in the absence of pPRO-Phe selected against synthetases capable of accepting endogenous amino acids as a substrate. After three rounds of selection, 96 clones were screened for growth rate dependence on the presence or absence of pPRO-Phe, and eight candidate clones were identified and sequenced. The polynucleotide and amino acid sequences of the eight clones is also provided in SEQ ID NOS: 4 through 19. […]

B1: pPRO-PheRS-1: para-propargyloxyphenylalanine aminoacyl-tRNA synthetase isolate-1, derived from wild-type Methanococcus jannaschii tyrosyl tRNA-synthetase (protein)
chain: MDEFEMIKRNTSEIISEEELREVLKKDEKSAAIGFEPSGKIHLGHYLQIKKMIDLQNAGFDIIILLADLHAYLNQKGELDEIRKIGDYNKKVFEAMGLKAKYVYGSPFQFDKDYTLNVYRLALKTTLKRARRSMELIAREDENPKVAEVIYPIMQVNAIHYAGVDVAVGGMEQRKIHMLARELLPKKVVCIHNPVLTGLDGEGKMSSSKGNFIAVDDSPEEIRAKIKKAYCPAGVVEGNPIMEIAKYFLEYPLTIKRPEKFGGDLTVNSYEELESLFKNKELHPMDLKNAVAEELIKILEPIRKRL
modifications: para-propargyloxyphenylalanine aminoacyl-tRNA synthetase derived from M. jannaschii tyrosyl tRNA-synthetase
notes: para-propargyloxyphenylalanine aminoacyl-tRNA synthetase isolate-1, derived from wild-type Methanococcus jannaschii tyrosyl tRNA-synthetase
chloramphenicol resistance on E. coli, IC50 (in the absence of pPRO-Phe): 5 µg/mL
chloramphenicol resistance on E. coli, IC50 (in the presence of pPRO-Phe): 110 µg/mL
